Experimental data taken from paper doi:10.1101/465930.

Molecular target: FGFR1 extracellular domain (UniProt P11362)
Test: optical biosensor

Sequence of UniProt P11362 (P11362 22-376): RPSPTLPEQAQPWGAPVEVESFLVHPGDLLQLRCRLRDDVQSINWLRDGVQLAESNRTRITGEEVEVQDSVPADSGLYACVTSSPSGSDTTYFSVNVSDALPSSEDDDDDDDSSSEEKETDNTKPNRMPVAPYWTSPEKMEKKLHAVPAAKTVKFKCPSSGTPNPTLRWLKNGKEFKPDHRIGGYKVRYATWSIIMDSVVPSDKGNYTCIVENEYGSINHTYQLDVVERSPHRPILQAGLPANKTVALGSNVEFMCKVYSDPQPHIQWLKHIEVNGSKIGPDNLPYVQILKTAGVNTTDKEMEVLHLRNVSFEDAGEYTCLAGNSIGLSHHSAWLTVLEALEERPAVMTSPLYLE

- Kd: 0.106 µM
Substance: Ncad-Fc (from UniProt P19022 160-724) (Fc fusion)
